Source: patent publication US20240182563A1 (GENOME, published 2024)
Like-named read-outs stand apart in the source and are kept apart here.

What was measured:
Assay in all cases: ELISA, plate coated with CNTN4-10xHis, anti-human Fc-HRP
mouse CNTN4-10xHis [1] = target: T1, mouse CNTN4-10xHis (mouse, UniProt Q69Z26 19-1000)
T1 sequence: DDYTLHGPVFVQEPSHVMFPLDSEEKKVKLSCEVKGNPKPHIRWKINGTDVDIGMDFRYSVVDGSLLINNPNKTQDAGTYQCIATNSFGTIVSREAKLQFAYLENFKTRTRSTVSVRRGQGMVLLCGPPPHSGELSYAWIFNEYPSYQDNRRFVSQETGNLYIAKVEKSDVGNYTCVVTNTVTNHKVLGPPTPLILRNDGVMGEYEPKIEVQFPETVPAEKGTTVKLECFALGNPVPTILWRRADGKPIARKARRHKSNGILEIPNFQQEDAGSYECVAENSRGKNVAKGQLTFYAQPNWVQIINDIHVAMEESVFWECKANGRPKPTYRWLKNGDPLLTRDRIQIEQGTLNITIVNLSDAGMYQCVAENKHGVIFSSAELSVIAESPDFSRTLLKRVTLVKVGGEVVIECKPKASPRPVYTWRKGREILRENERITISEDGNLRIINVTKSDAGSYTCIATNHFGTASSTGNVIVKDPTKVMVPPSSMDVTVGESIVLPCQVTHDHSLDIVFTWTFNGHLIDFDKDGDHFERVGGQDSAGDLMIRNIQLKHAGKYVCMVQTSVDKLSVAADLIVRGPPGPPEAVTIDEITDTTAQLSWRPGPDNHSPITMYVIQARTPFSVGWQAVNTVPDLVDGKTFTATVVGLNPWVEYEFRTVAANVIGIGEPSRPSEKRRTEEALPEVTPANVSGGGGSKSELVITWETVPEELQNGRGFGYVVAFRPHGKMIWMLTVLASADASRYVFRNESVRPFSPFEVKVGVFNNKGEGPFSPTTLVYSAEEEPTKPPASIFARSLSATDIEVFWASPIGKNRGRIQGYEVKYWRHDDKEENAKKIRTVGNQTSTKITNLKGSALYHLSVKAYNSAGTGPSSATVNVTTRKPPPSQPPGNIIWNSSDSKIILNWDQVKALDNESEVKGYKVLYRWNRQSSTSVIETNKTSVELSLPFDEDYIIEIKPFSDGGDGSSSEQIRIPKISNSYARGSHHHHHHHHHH
Description: An ELISA test was performed on A-01 prepared in Example 2.1. An ELISA plate was coated with 200 ng of antigens (human CNTN4-10xHis or mouse CNTN4-10xHis). For antibody binding, A-01 was serially diluted from a maximum of 1 μM to 0.0001 nM, thereby binding to the antigen. Anti-human Fc-HRP was used as a secondary antibody for antibody detection. Color was developed using ABTS, which is a color developing reagent, and the absorbance at 405 nm was measured.

mouse CNTN4-10xHis [2] = target: T1, mouse CNTN4-10xHis; remark: listed apart in the source
Description: (§1) The LAH2, L1H2, and L2H2 antibodies prepared in Example 3.1 were subjected to an ELISA test together with A-01. An ELISA plate was coated with 200 ng of antigens (human CNTN4-10xHis or mouse CNTN4-10xHis). For antibody binding, antibodies were serially diluted from a maximum of 1 μM to 0.0001 nM, thereby binding to the antigen. Anti-human Fc-HRP was used as a secondary antibody for antibody detection. Color was developed using ABTS, which is a color developing reagent, and the absorbance at 405 nm was measured.

human CNTN4-10xHis = target: T2, human CNTN4-10xHis (human, UniProt Q8IWV2 19-1000)
T2 sequence: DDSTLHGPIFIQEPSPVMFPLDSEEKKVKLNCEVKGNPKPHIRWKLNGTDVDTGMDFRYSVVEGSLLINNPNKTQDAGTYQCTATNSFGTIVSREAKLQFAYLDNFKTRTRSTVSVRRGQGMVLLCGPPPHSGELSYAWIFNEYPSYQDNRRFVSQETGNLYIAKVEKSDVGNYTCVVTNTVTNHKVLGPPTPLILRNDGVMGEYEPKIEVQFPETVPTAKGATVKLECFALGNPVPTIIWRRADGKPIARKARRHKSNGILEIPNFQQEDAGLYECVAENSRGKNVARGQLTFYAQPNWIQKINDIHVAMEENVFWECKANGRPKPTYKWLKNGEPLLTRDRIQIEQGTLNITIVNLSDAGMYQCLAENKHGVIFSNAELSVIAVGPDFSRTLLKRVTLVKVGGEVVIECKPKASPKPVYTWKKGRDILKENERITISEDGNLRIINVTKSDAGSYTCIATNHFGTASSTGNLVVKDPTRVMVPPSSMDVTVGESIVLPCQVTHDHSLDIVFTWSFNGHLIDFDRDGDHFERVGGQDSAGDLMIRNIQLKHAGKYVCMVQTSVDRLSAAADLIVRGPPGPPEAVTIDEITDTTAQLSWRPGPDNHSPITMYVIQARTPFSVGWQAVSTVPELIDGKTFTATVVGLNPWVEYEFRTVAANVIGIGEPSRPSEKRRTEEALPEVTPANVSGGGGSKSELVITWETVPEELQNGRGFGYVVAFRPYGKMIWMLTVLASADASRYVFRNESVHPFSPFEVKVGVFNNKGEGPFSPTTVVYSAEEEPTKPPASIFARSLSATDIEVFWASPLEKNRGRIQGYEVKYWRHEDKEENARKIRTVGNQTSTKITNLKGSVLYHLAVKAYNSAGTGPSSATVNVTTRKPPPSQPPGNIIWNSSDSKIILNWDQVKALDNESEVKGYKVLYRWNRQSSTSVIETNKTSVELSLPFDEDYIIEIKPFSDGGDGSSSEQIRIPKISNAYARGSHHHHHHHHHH
Description: as §1

Measured: EC50

B1: anti-CNTN4 129 chimeric IgG4-S228P (antibody, V domains shown)
VH: AVTLDESEGGLQTPGGALSLVCKASGFTFSSFNMFWVRQAPGKGLEYVAEISGGGGSTWYAPAVKGRATISRDNGQSTVRLQLNNLRAEDTGTYYCAKSADTWSYGAATIDAWGHGTEVIVSS
VL: ALTQPSSVSANLGETVKITCSGSSGSYGWYQQKSPGSAPVTLIYDNTNRPSDIPSRFSGSGSGSTGTLTITGVRAEDEAVYYCGGYDGSTDVFGAGTTLTVL
notes: chicken-human chimeric IgG4-S228P made from S129, kappa light chain constant region (Kappa select); also called A-01; LAHA
0.011 nM: all assays above
